Publication PMC3669411, “Characterization of Flavin-Based Fluorescent Proteins: An Emerging Class of Fluorescent Reporters” (PLoS ONE, 2013)
Each block holds one compound with its values, some of them ahead of it.

Columns and labels:
[1] = biological target: T1, iLOV (Arabidopsis thaliana, UniProt P93025, S394T/S409G/C426A/I452T/F470L/M475V); assay: absorbance at […] nm vs Bradford total protein, as purified; format: binding; conditions: FMN-bound fraction of purified protein; noncovalent
T1 construct: gene PHOT2; primers give start MIEKNFVI, end LDGSDHV
T1 sequence (P93025 387-496 S394T/S409G/C426A/I452T/F470L/M475V): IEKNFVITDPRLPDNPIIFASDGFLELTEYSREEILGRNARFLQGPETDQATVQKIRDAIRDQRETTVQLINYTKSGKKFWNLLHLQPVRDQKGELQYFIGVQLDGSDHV

[2] = biological target: EcFbFP, FMN-based fluorescent protein derived from the N-terminal LOV domain of Bacillus subtilis YTVA (E. coli codon-optimized gene) (Bacillus subtilis) (UniProt O34627); assay: SEC; Superdex 200 gel filtration on AKTA FPLC, calibrated with globular protein standards; 0.15 M NaCl (methods name phosphate buffered saline); oligomeric state = estimated mass divided by calculated monomer mass (110 Da per amino acid); mean of duplicates
[3] = biological target: EcFbFP, FMN-based fluorescent protein derived from the N-terminal LOV domain of Bacillus subtilis YTVA (E. coli codon-optimized gene) (Bacillus subtilis) (UniProt O34627); assay: SEC; Superdex 200 gel filtration on AKTA FPLC, calibrated with globular protein standards; 0.5 M NaCl; oligomeric state = estimated mass divided by calculated monomer mass (110 Da per amino acid); mean of duplicates
[4] = biological target: EcFbFP, FMN-based fluorescent protein derived from the N-terminal LOV domain of Bacillus subtilis YTVA (E. coli codon-optimized gene) (Bacillus subtilis) (UniProt O34627); assay: SEC; Superdex 200 gel filtration on AKTA FPLC, calibrated with globular protein standards; 1 M NaCl (20 mM Tris hydrochloride, 1 M NaCl, pH 8.0); oligomeric state = estimated mass divided by calculated monomer mass (110 Da per amino acid); mean of duplicates
[5] = biological target: PpFbFP, FMN-based fluorescent protein from Pseudomonas putida (Pseudomonas putida) (UniProt Q88JB0); assay: SEC; Superdex 200 gel filtration on AKTA FPLC, calibrated with globular protein standards; 0.15 M NaCl (methods name phosphate buffered saline); oligomeric state = estimated mass divided by calculated monomer mass (110 Da per amino acid); mean of duplicates
[6] = biological target: PpFbFP, FMN-based fluorescent protein from Pseudomonas putida (Pseudomonas putida) (UniProt Q88JB0); assay: SEC; Superdex 200 gel filtration on AKTA FPLC, calibrated with globular protein standards; 0.5 M NaCl; oligomeric state = estimated mass divided by calculated monomer mass (110 Da per amino acid); mean of duplicates
[7] = biological target: PpFbFP, FMN-based fluorescent protein from Pseudomonas putida (Pseudomonas putida) (UniProt Q88JB0); assay: SEC; Superdex 200 gel filtration on AKTA FPLC, calibrated with globular protein standards; 1 M NaCl (20 mM Tris hydrochloride, 1 M NaCl, pH 8.0); oligomeric state = estimated mass divided by calculated monomer mass (110 Da per amino acid); mean of duplicates

Fholo [1]: 0.39±0.01
Compound: Cc1cc2nc3c(=O)[nH]c(=O)nc-3n(C[C@H](O)[C@H](O)[C@H](O)COP(=O)(O)O)c2cc1C [FMN]

stoichiometry N [2]: 1.9
stoichiometry N [3]: 1.7
stoichiometry N [4]: 1.6
Compound: EcFbFP, FMN-based fluorescent protein derived from the N-terminal LOV domain of Bacillus subtilis YTVA (E. coli codon-optimized gene) (from UniProt O34627 20-147) (domain or fragment)

stoichiometry N [5]: 1.9
stoichiometry N [6]: 1.7
stoichiometry N [7]: 1.5
Compound: PpFbFP, FMN-based fluorescent protein from Pseudomonas putida (from UniProt Q88JB0 1-151) (natural protein)
